Measurements published in patent publication US20230012273A1 (Boehringer Ingelheim, published 2023).

Legend:
Test in all cases: SPR, Ab captured, ECD-His analyte
[1] = molecular target: T1, human SIRPβL/SIRPβ1v3 extracellular domain + His-tag (NP_001129316.1) (human, UniProt Q5TFQ8 30-371)
T1 construct: also called hSIRPβ1v3; HuSIRPβ1v3
Experimental: (§1) The binding affinity of anti-SIRPα antibodies to the various SIRPα analytes is determined by surface plasmon resonance (SPR) using a ProteOn XPR36 (Bio-Rad). The running buffer for this experiment and all dilutions (except where stated) are done in 1×HBS-EP+. […] The sensorchip is deactivated with 1M ethanolamine HCl for 420 sec at a flowrate of 10 μl/min.
(§2) The analyte is injected over the captured antibody for 300 sec at a flowrate of 30 μl/min. The dissociation is done for 600 sec. Two-fold serial dilutions of each SIRP protein (Extracellular Domain+His-Tag) are injected as analyte with the highest concentrations indicated in table 36 below.

[2] = molecular target: T2, human SIRPαV1 extracellular domain + His-tag (NP_542970.1) (human, UniProt P78324 31-373)
T2 construct: also called hSIRPαV1; HuSIRPαV1
T2 sequence (P78324 other isoform, or with tags, fused parts or gaps): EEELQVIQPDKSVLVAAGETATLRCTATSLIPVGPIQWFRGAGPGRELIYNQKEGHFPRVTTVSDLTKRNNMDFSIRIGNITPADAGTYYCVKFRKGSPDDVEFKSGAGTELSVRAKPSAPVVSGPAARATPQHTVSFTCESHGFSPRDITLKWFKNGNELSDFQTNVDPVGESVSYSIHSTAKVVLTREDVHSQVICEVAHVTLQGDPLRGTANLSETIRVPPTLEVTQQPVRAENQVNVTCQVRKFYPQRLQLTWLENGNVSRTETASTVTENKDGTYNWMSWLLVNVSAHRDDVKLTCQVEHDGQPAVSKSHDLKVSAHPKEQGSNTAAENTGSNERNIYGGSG
Experimental: as §1, §2

[3] = molecular target: T3, human SIRPβ1 extracellular domain + His-tag (NP_006056.2) (human, UniProt O00241 30-371)
T3 construct: also called hSIRPβ1; HuSIRPβ1
T3 sequence (O00241 other isoform, or with tags, fused parts or gaps): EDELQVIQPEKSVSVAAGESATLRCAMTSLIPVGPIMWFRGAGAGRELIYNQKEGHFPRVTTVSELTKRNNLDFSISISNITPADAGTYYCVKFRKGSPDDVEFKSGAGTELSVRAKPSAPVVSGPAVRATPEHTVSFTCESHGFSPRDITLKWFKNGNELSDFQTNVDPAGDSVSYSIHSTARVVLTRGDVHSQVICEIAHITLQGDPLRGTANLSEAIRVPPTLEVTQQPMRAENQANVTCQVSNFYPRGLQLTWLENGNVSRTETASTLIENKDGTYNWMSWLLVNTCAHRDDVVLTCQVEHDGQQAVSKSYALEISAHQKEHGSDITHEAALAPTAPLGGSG
Experimental: as §1, §2

[4] = molecular target: T4, human SIRPαV2 extracellular domain + His-tag (CAA71403.1) (human, UniProt P78324 31-373)
T4 construct: also called hSIRPαV2; HuSIRPαV2
T4 sequence (P78324 other isoform, or with tags, fused parts or gaps): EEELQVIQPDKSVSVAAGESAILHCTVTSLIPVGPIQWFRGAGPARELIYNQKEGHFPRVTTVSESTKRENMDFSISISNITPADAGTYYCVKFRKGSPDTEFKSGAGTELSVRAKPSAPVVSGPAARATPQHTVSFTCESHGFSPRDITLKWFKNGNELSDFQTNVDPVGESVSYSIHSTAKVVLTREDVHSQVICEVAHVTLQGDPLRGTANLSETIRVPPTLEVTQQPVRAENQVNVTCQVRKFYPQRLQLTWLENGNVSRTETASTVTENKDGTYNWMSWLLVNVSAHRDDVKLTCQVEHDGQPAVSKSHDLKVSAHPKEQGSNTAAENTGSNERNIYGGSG
Experimental: as §1, §2

[5] = molecular target: T5, human SIRPγ extracellular domain + His-tag (NP_061026.2) (human, UniProt Q9P1W8 29-360)
T5 construct: also called hSIRPγ; HuSIRPγ
T5 sequence (Q9P1W8 29-360): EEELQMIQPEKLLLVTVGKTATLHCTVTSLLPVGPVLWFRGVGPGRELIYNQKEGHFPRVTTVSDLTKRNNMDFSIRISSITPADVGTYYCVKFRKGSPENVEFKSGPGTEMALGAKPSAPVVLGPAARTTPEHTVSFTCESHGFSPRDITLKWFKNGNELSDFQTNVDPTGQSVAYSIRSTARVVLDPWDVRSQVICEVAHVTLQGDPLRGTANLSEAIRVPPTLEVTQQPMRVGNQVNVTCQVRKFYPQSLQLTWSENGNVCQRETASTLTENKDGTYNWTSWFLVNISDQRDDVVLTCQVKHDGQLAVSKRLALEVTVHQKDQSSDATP
Experimental: as §1, §2

T1 sequence (Q5TFQ8 other isoform, or with tags, fused parts or gaps): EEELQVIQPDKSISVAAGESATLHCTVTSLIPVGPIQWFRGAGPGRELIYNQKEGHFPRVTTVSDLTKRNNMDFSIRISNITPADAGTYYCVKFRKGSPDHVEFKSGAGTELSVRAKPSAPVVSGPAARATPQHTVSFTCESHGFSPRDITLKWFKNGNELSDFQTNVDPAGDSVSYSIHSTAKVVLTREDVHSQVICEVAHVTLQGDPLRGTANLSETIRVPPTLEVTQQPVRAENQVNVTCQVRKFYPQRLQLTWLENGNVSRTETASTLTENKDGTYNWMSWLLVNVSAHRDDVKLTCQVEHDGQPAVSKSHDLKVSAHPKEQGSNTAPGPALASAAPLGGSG

B1: Antibody E12 (antibody, human IgG1, kappa, L234A L235A, V domains shown)
VH: QVQLQESGPGLVRPSETLSLTCTVSGGSIRNYYWSWIRQPPGKGLEWIGFIYYNGRTFYNPSLKSRVTISLDMSKNQFSLKMTSVTAADTAVYYCARVRAYSGIGLDGTDVWGQGTTVTVSS
VL: DIVMTQSPLSLPVTPGEPASISCKSSQSLLYSNAYNYLDWYLQRPGQSPQLLIYLGSNRASGVPDRFSGSGSGTDFTLKISRVEAEDVGVYYCMQALQTPLTFGGGTKVEIKR
In the case of B1, the Kd [1] is reported as 3.43 nM, the Kd [2] is reported as 1.67 nM and the Kd [3] is reported as 1670 nM. For the same binder, the Kd [4] was 1.26 nM and the binding result [5] was “no binding (tested: 1000 nM)”.

B2: Antibody E15 (antibody, human IgG1, kappa, L234A L235A, V domains shown)
VH: QVQLQESGPGLVRPSETLSLTCTVSGGSIRNYYWSWIRQPPGKGLEWIGFIYYTGRTFYNPSLKSRVTISLDMSINQFSLKMTSVTAADTAVYYCARVRAYSGIGLDGTDVWGQGTTVTVSS
VL: DIVMTQSPLSLPVTPGEPASISCKSSQSLLYSNGYAYLDWYLQRPGQSPQLLIYLGSNRASGVPDRFSGSGSGTDFTLKISRVEAEDVGVYYCMQALQTPLTFGGGTKVEIKR
B2 was tested, and the Kd [1] was 4.56 nM, the Kd [2] was 1.91 nM and the binding result [3] was “no binding (tested: 1000 nM)”. For the same binder, the Kd [4] was 0.737 nM and the binding result [5] was “no binding (tested: 1000 nM)”.

B3: Antibody E13 (antibody, human IgG1, kappa, L234A L235A, V domains shown)
VH: QVQLQESGPGLVRPSETLSLTCTVSGGSIRNYYWSWIRQPPGKGLEWIGFIYYTGRTFYNPSLKSRVTISLDMSINQFSLKMTSVTAADTAVYYCARVRAYSGIGLDGTDVWGQGTTVTVSS
VL: DIVMTQSPLSLPVTPGEPASISCKSSQSLLYSNGYAYLDWYLQRPGQSPQLLIYQGSNRASGVPDRFSGSGSGTDFTLKISRVEAEDVGVFYCMQALQTPLTFGGGTKVEIKR
In the case of B3, the Kd [1] is reported as 4.17 nM, the Kd [2] is reported as 1.7 nM and the binding result [3] is reported as “no binding (tested: 1000 nM)”. The Kd [4] was 0.69 nM and the binding result [5] was “no binding (tested: 1000 nM)”.

B4: Antibody E21 (antibody, human IgG1, kappa, L234A L235A, V domains shown)
VH: QVQLQESGPGLVRPSETLSLTCTVSGGSIRNYYWSWIRQPPGKGLEWIGFIYYTGRTFYNPSLKSRVTISLDMSKNQFSLKMTSVTAADTAVYYCARVRAYSGIGLDGTDVWGQGTTVTVSS
VL: DIVMTQSPLSLPVTPGEPASISCKSSQSLLYSNAYNYLDWYLQRPGQSPQLLIYLGSNRASGVPDRFSGSGSGTDFTLKISRVEAEDVGVYYCMQALQTPLTFGGGTKVEIKR
B4 was tested, and the Kd [1] was 8.84 nM, the Kd [2] was 4.46 nM and the binding result [3] was “no binding (tested: 1000 nM)”. For the same binder, the Kd [4] was 1.39 nM and the binding result [5] was “no binding (tested: 1000 nM)”.

B5: Antibody E19 (antibody, human IgG1, kappa, L234A L235A, V domains shown)
VH: QVQLQESGPGLVRPSETLSLTCTVSGGSIRNYYWSWIRQPPGKGLEWIGFIYYTGRTFYNPSLKSRVTISLDMSKNQFSLKMTSVTAADTAVYYCARVRAYSGIGLDGTDVWGQGTTVTVSS
VL: DIVMTQSPLSLPVTPGEPASISCKSSQSLLYSNGYAYLDWYLQRPGQSPQLLIYQGSNRASGVPDRFSGSGSGTDFTLKISRVEAEDVGVFYCMQALQTPLTFGGGTKVEIKR
Binder B5 has a Kd [1] of 4.74 nM, a Kd [2] of 2.52 nM and a Kd [3] of 1660 nM. For the same binder, the Kd [4] was 0.97 nM and the binding result [5] was “no binding (tested: 1000 nM)”.

B6: Antibody E18 (antibody, human IgG1, kappa, L234A L235A, V domains shown)
VH: QVQLQESGPGLVRPSETLSLTCTVSGGSIRNYYWSWIRQPPGKGLEWIGFIYYTGRTFYNPSLKSRVTISLDMSKNQFSLKMTSVTAADTAVYYCARVRAYSGIGLDGTDVWGQGTTVTVSS
VL: DIVMTQSPLSLPVTPGEPASISCKSSQSLLYSNGYAYLDWYLQRPGQSPQLLIYLGSNRASGVPDRFSGSGSGTDFTLKISRVEAEDVGVYYCMQALQTPLTFGGGTKVEIKR
In the case of B6, the Kd [1] is reported as 4.8 nM, the Kd [2] is reported as 2.46 nM and the binding result [3] is reported as “no binding (tested: 1000 nM)”. The Kd [4] was 0.898 nM and the binding result [5] was “no binding (tested: 1000 nM)”.

B7: Antibody E20 (antibody, human IgG1, kappa, L234A L235A, V domains shown)
VH: QVQLQESGPGLVRPSETLSLTCTVSGGSIRNYYWSWIRQPPGKGLEWIGFIYYTGRTFYNPSLKSRVTISLDMSINQFSLKMTSVTAADTAVYYCARVRAYSGIGLDGTDVWGQGTTVTVSS
VL: DIVMTQSPLSLPVTPGEPASISCKSSQSLLYSNAYNYLDWYLQRPGQSPQLLIYLGSNRASGVPDRFSGSGSGTDFTLKISRVEAEDVGVYYCMQALQTPLTFGGGTKVEIKR
Work on B7 yielded a Kd [1] of 8.48 nM, a Kd [2] of 3.42 nM and a Kd [3] of 435 nM. For the same binder, the Kd [4] was 1.11 nM and the binding result [5] was “no binding (tested: 1000 nM)”.

B8: Antibody E17 (antibody, human IgG1, kappa, L234A L235A, V domains shown)
VH: QVQLQESGPGLVRPSETLSLTCTVSGGSIRNYYWSWIRQPPGKGLEWMGFIYDNGRTFYNPSLKSRVTISLDMSMNQFSLKMTSVTAADTAVYYCARVRAYSGIGLDGTDVWGQGTTVTVSS
VL: DIVMTQSPLSLPVTPGEPASISCKSSQSLLYSNAYNYLDWYLQRPGQSPQLLIYLGSNRASGVPDRFSGSGSGTDFTLKISRVEAEDVGVYYCMQALQTPLTFGGGTKVEIKR
B8 was tested, and the Kd [1] was 5.32 nM, the Kd [2] was 2.36 nM and the binding result [3] was “no binding (tested: 1000 nM)”. The Kd [4] was 0.797 nM and the binding result [5] was “no binding (tested: 1000 nM)”.

B9: Antibody E14 (antibody, human IgG1, kappa, L234A L235A, V domains shown)
VH: QVQLQESGPGLVRPSETLSLTCTVSGGSIRNYYWSWIRQPPGKGLEWIGFIYYNGRTFYNPSLKSRVTISLDKSKNQFSLKMTSVTAADTAVYYCARVRAYSGIGLDGTDVWGQGTTVTVSS
VL: DIVMTQSPLSLPVTPGEPASISCKSSQSLLYSNAYNYLDWYLQRPGQSPQLLIYLGSNRASGVPDRFSGSGSGTDFTLKISRVEAEDVGVYYCMQALQTPLTFGGGTKVEIKR
With B9 the Kd [1] was 4.8 nM, the Kd [2] was 1.84 nM and the binding result [3] was “no binding (tested: 1000 nM)”. For the same binder, the Kd [4] was 1.36 nM and the binding result [5] was “no binding (tested: 1000 nM)”.
